Data taken from CN114349852A.

Columns and labels:
[1] = target: H3N2流感病毒血凝素蛋白 (A/Texas/50/2012) (H3N2 influenza A virus (A/Texas/50/2012)); assay: indirect ELISA on coated H3N2 hemagglutinin, ascites
[2] = target: H3N2流感病毒血凝素蛋白 (A/Texas/50/2012) (H3N2 influenza A virus (A/Texas/50/2012)); assay: indirect ELISA on coated H3N2 hemagglutinin, hybridoma culture supernatant

B1: 抗H3N2流感病毒血凝素蛋白单克隆抗体ZJU32-01 (antibody, V domains shown)
VH: QVQLQQSGAELMKPGASVKISCKATGYIFSSYWIEWVKQRPGHGLEWIGEILPGSGRTNYKEIFKGKATFTADTSSNTAYMQLSSLTSEDSAVYYCARTRTTGSSDWGQGTTLTVSS
VL: DVLMTQTPLSLPVSLGDQASISCRSSQTTVHSNGNTYLEWYLQKPGQSPKLLIYKVSNRFFGVPDRFSGSGSGTDFTLKISRVEAEDLGVYYCFQGSHVPYTFGGGTKLEIK
B1 showed a 效价 (ELISA titer) (dilution (1:x)) [1] of 2048 and a 效价 (ELISA titer) (dilution (1:x)) [2] of 64.
